Measured values published in US7635557B2 (MND Diagnostic Ltd., priority 2003, dated 2009).
Ends that are not written are not given here.

Legend:
[1] = molecular target: T1, Rhinovirus HRV14 3C protease (Human rhinovirus 14, UniProt P03303); details: cited from earlier work
T1 construct: the human rhinovirus 14 3C proteinase, cloned and expressed in E. coli; host or cells: E. coli

[2] = molecular target: T1, Rhinovirus HRV14 3C protease; assay type: biochemical
[3] = molecular target: T2, Human Rhinovirus serotype 1A 3C Protease (Human rhinovirus 1A, UniProt P23008); assay type: biochemical
T2 construct: is used to clone the 3C Protease into the expression vector pET16-b; made in house; host or cells: E. coli BL21-DE3-pLys-S
T2 sequence (P23008 1515-1697 limits assumed): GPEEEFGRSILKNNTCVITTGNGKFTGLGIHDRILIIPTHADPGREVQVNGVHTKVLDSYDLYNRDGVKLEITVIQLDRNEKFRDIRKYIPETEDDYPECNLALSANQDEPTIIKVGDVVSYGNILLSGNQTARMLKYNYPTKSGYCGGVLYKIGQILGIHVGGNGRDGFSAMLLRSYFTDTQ

T1 sequence (P03303 1538-1719): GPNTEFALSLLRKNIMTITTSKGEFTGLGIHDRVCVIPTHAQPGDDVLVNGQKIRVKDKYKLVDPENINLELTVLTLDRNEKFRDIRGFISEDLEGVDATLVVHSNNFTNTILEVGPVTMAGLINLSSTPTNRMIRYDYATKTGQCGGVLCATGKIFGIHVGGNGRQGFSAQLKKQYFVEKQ

## SQTVALTEGLGDELEEY
[1]
  Hydrolysis rate: 0
  Relative Hydrolysis rate: 0.0005

## VPYIERQANDGWFRK [III]
[1]
  Hydrolysis rate: 0
  Relative Hydrolysis rate: 0.0005

## DSLETLFQGPVYK [I]
[1]
  Hydrolysis rate: 355
  Relative Hydrolysis rate: 1.00

## RPVVVQGPN
[2]
  best substrate chosen based on the reaction rates: best peptide

## EAIAEEQGLSDYIT [II]
[1]
  Hydrolysis rate: 8
  Relative Hydrolysis rate: 0.024

## KLFAQTQGPYSGNP [VI]
[1]
  Hydrolysis rate: 147
  Relative Hydrolysis rate: 0.44

## YRPVVVQGPNTEF [VII]
[1]
  Hydrolysis rate: 37
  Relative Hydrolysis rate: 0.11

## MOC-Arg-Ala-Glu-Leu-Gln-Gly-Pro-Tyr-Asp-Lys-DNP-NH2 (RAELQGPYDK; not fully specified; MOC fluorochrome, DNP quencher, C-terminal amide; Human rhinovirus 1A; MOC; fluorochrome) [dimodified decapeptide substrate (7-methoxy coumarin-4-acetic acid fluorochrome and dinitrophenol quencher)]
[3]
  Km: 16.8 µM

## KQYFVEKQGQVIAR [VIII]
[1]
  Hydrolysis rate: 1
  Relative Hydrolysis rate: 0.003
